Here are results for two sequences from patent US20140072613A1, “Compositions and Methods for Treating Cutaneous Scarring” (priority 2012, published 2014).

Assay in all cases: biochemical
Common to all, as to type: biochemical

In test [1] the test system is 266 human kinases. To be noted: for % activity: 100 μM; for off-target kinase inhibition: at 100 μM. In outline:
(§1)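 Kinase phosphorylates cationic substrate with radiolabelled ATP phosphate; substrate retained on anionic filter membrane; scintillation count; % of 100% activity control.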

In test [2] the target is T1, 266 human kinases (Homo sapiens, UniProt P43403).
T1 sequence (P43403 1-619): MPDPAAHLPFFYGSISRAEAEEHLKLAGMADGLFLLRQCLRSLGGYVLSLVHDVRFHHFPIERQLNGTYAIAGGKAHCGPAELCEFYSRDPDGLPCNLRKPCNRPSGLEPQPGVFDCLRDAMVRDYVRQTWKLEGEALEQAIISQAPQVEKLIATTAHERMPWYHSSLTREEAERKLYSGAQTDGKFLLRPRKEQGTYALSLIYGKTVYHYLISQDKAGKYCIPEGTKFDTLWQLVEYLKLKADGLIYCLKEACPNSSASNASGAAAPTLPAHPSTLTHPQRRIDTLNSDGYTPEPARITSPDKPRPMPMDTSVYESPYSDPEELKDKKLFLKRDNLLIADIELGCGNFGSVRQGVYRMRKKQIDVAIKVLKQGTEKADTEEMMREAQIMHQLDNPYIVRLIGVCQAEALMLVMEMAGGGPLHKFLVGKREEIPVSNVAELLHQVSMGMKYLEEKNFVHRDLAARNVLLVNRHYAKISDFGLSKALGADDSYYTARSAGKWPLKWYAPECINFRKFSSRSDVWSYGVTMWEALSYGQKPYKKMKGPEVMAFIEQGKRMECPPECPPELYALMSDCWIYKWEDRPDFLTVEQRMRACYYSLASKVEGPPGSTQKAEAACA
The note with it: ZAP-70(h); 100 μM. Put shortly:
as §1

Test [3] has as its target 266 human kinases (Homo sapiens, UniProt Q14289). To be noted: Pyk2 (h); 100 μM. In outline:
as §1

Test [4] concerns the target 266 human kinases (Homo sapiens, UniProt P23443). To be noted: p70S6K(h); 100 μM. Put shortly:
as §1

For test [5], the target named is T2, 266 human kinases (Homo sapiens, UniProt Q9UHD2).
T2 sequence (Q9UHD2 1-729): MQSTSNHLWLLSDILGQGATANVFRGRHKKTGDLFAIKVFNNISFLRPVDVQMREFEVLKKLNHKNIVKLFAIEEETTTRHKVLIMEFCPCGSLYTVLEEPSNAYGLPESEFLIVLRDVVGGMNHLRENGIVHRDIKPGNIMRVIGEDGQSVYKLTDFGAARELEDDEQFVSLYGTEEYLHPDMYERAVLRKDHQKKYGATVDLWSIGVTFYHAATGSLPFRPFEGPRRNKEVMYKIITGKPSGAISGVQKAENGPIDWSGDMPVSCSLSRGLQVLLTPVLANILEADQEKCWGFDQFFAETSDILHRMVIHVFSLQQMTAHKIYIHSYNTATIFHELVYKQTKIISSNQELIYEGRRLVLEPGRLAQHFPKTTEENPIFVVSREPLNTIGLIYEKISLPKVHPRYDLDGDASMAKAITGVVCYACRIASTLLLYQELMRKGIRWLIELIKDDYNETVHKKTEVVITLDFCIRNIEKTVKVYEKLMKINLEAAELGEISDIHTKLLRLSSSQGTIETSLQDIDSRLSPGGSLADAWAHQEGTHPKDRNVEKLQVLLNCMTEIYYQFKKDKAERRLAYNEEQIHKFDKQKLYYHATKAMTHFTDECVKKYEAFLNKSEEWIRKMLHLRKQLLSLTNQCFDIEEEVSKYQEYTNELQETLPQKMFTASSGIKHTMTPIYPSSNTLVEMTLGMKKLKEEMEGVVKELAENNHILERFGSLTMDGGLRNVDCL
The note with it: TBK1(h); 100 μM. Put shortly: as §1

The target of test [6] is 266 human kinases (Homo sapiens, UniProt O96013). To be noted: PAK4(h); 100 μM. Put shortly: as §1
266 human kinases (Homo sapiens, UniProt O96013), sequence (O96013 whole entry): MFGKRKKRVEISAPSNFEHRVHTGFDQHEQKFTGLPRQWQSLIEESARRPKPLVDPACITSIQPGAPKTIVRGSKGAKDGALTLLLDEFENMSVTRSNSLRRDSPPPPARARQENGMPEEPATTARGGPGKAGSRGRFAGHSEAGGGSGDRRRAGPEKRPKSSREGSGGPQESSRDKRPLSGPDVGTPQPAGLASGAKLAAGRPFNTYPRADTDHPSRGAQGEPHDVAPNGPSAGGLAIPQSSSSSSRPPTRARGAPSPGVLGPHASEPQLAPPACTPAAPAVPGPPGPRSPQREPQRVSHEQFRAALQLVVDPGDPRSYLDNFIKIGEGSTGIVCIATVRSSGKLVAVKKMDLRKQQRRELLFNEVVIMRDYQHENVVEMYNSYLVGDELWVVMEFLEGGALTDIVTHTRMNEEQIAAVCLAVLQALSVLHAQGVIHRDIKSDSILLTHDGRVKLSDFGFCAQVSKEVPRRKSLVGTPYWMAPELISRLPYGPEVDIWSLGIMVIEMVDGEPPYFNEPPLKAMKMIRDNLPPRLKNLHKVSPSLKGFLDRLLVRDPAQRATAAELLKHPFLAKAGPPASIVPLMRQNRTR
Test [7] addresses 266 human kinases (Homo sapiens, UniProt P30530). The note with it: Axl(h); 100 μM. Put shortly: as §1
The target of test [8] is 266 human kinases (Homo sapiens, UniProt P05129). The note with it: PKCγ(h); 100 μM. Put shortly: as §1
The target of test [9] is T3, 266 human kinases (Homo sapiens, UniProt Q96PF2).
T3 sequence (Q96PF2 1-358): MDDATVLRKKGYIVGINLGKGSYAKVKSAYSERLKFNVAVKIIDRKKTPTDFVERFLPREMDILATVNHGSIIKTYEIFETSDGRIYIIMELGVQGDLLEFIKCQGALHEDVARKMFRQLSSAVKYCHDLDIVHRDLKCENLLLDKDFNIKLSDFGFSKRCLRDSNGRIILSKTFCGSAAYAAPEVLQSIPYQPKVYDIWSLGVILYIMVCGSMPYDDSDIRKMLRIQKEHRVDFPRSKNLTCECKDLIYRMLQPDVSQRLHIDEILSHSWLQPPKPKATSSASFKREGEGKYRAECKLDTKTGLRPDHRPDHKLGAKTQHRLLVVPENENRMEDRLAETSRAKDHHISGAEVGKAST
To be noted: TSSK2(h); 100 μM. In outline: as §1

The target of test [10] is T4, 266 human kinases (Homo sapiens, UniProt Q9BXA7).
T4 sequence (Q9BXA7 1-367): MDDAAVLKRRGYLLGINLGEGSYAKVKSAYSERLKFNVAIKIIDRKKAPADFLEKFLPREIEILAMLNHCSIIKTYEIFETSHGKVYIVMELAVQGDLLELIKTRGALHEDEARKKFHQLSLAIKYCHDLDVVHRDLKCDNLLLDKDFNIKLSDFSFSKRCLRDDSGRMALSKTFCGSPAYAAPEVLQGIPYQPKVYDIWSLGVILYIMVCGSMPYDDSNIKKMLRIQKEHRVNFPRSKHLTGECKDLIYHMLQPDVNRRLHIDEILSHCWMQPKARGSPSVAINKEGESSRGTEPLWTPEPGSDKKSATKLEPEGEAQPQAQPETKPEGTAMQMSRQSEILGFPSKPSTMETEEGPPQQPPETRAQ
To be noted: TSSK1(h); 100 μM. In outline: as §1

Test [11] deals with 266 human kinases (Homo sapiens, UniProt P36888). To be noted: Flt3(h); 100 μM. Put shortly: as §1

266 human kinases (Homo sapiens, UniProt P23443), sequence (P23443 whole entry): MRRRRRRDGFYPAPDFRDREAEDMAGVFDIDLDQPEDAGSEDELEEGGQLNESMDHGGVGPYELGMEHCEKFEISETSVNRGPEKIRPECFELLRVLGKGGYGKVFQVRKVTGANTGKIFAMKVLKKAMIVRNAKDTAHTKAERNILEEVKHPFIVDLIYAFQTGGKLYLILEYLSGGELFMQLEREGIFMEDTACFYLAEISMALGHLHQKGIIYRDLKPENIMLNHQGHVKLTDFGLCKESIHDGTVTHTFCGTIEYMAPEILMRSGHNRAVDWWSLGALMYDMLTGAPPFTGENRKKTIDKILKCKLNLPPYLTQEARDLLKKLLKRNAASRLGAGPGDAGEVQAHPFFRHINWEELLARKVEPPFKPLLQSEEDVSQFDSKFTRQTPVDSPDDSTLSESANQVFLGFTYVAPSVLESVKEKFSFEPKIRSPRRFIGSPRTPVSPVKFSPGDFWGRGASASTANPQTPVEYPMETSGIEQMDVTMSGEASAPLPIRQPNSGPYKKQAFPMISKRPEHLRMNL
266 human kinases (Homo sapiens, UniProt Q14289), sequence (Q14289 whole entry): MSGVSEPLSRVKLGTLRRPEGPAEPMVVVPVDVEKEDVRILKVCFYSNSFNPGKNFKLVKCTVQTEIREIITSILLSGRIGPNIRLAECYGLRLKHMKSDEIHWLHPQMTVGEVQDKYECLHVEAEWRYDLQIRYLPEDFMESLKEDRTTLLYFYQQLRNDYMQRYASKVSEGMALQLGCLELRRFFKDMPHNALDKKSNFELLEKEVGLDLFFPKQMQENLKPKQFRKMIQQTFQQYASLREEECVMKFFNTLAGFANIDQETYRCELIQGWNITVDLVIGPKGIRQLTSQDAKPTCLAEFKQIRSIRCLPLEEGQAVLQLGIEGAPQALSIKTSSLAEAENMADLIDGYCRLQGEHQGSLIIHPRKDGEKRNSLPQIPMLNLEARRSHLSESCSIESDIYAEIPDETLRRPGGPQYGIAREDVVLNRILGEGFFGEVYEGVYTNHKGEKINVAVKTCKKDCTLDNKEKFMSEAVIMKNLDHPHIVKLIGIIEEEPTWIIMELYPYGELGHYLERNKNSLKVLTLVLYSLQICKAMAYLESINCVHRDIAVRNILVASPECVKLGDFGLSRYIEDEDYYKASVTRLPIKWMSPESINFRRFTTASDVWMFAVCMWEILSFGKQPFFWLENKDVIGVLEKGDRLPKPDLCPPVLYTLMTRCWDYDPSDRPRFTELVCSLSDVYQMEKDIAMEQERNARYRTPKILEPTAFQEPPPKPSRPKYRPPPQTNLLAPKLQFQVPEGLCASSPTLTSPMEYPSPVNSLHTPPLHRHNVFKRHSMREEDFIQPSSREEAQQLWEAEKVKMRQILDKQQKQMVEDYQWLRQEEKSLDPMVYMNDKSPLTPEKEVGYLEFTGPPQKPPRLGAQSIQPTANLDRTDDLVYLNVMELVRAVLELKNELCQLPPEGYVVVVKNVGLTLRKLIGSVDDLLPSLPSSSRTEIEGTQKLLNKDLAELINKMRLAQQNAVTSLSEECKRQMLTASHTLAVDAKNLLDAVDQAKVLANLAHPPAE

In the case of “HRRIKAWLKKIKALARQLGVAA (mammal) [MMI-0500]”, the “% activity” value in test [1] (PKCβII(h)) worked out at 3%; in test [1] (PKG1β(h)), 24%; in test [2] it was 1%; in [3], 46%; in [4] it was 3%; in [5], 16%. In addition, the “% activity” value in [6] was 86%; in test [7] it was 12%; in [8], 6%; in [9], 92%; in [10] it was 46%; in [11], 17%. The off-target kinase inhibition result in test [1] was “very limited off-target kinase inhibition”.

Consider “YARAAARQARAKALNRQLGVA (mammal) [MMI-0200]”, for which the “% activity” value in test [1] (MAPK1(h)) stood at 97%; in test [1] (PKCβII(h)), 100%; in test [1] (PKG1β(h)), 57%; in test [2] it was 58%; in [3], 127%; in test [4] it was 84%. Further, the “% activity” value in test [5] is 98%; in test [6], 98%; in test [7], 99%; in test [8] it was 101%; in test [9] it was 91%; in test [10], 98%. Also, the “% activity” value in test [11] came to 99%. Also, in [1], the off-target kinase inhibition entry was “very limited off-target kinase inhibition”.
